According to patent US7919233B2, “Motif of the beclin protein which interacts with anti-apoptotic members of the Bcl-2 protein family, and uses” (Les Laboratoires Servier, priority 2005, dated 2011):

Key:
Format in all cases: binding
Conditions in all cases: relative to the Beclin peptide according to the invention
[1] = molecular target: Bcl-2 (Homo sapiens, UniProt P10415); test: Ki by fluorescence polarisation: competition with the Bak BH3 carboxyfluorescein peptide for Bcl-2
Experimental: (§1) The determination of Ki using fluorescence polarisation consists of measuring the competitive effect of the Beclin peptide on the interaction between the pro-apoptotic Bak peptide and anti-apoptotic members of the Bcl-2 protein family such as Bcl-XL, Bcl-2 or Bcl-W.
(§2) The following reagents are mixed together in the order stated: • a) competitor peptide at a final concentration of from 1 nM to 100 μM; • b) fluorescent peptide ligand (Bak BH3 carboxyfluorescein) at a final concentration of 15 nM; • c) anti-apoptotic member of the Bcl-2 protein family at a final concentration of 100 nM for Bcl-XL and of 1 μM for Bcl-2 and Bcl-W.
(§3) These reagents are dissolved in the interaction buffer (Na2HPO4 20 mM pH 7.4, EDTA 1 mM, NaCl 50 mM and pluronic acid F-68 0.05%).
(§4) The mixture is then incubated for 30 minutes at ambient temperature and the fluorescence polarisation is determined on a Fusion apparatus (Packard) (excitation at 485 nm and reading at 530 nm). The values are given in mP (unit of fluorescence polarisation).
(§5) The protocol for the determination of Ki using fluorescence polarisation is the same as the protocol described above.

[2] = molecular target: T1, Bcl-W (Homo sapiens, UniProt Q92843); test: Ki by fluorescence polarisation: competition with the Bak BH3 carboxyfluorescein peptide for Bcl-W
T1 sequence (Q92843 1-193): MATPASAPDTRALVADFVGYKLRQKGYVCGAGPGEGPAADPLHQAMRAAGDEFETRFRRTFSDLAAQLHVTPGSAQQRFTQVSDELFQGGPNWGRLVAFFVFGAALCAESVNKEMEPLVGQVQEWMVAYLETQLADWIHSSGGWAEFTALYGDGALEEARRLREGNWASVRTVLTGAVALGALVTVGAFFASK
Experimental: as §1, §2, §3, §4, §5

[3] = molecular target: Bcl-XL (Homo sapiens, UniProt Q07817); test: Ki by fluorescence polarisation: competition with the Bak BH3 carboxyfluorescein peptide for Bcl-XL
Bcl-XL, sequence (Q07817 whole entry): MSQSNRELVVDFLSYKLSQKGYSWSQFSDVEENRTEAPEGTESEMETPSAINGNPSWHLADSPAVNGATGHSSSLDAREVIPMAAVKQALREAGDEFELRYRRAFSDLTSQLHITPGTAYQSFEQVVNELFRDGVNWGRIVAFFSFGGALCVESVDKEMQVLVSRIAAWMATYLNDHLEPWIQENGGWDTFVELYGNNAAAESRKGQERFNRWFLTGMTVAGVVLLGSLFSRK
Experimental: as §1, §2, §3, §4, §5

Bcl-2, sequence (P10415 whole entry): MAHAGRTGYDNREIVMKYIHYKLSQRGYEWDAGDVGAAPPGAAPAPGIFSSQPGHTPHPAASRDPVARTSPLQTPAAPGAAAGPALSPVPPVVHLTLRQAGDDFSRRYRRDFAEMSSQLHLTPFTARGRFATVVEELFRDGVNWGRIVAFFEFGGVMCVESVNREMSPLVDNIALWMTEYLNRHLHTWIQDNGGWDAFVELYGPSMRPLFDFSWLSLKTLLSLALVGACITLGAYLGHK

GTMENLSRRAKVTGDLFDIMSGQTDV (Mutated Beclin Peptide) [mutant Beclin protein (L116A)]
loss of competitive effect: competitive effect on the interaction between Bak peptide and Bcl-2 [1] | competitive effect on the interaction between Bak peptide and Bcl-W [2] | competitive effect on the interaction between Bak peptide and Bcl-XL [3]
